Reference: article PMC5903867, “Hexameric and pentameric complexes of the ExbBD energizer in the Ton system” (eLife, 2018)

B1: ExbB (natural protein, Escherichia coli, UniProt P0ABU7 1-244, looked up)
chain: MGNNLMQTDLSVWGMYQHADIVVKCVMIGLILASVVTWAIFFSKSVEFFNQKRRLKREQQLLAEARSLNQANDIAADFGSKSLSLHLLNEAQNELELSEGSDDNEGIKERTSFRLERRVAAVGRQMGRGNGYLATIGAISPFVGLFGTVWGIMNSFIGIAQTQTTNLAVVAPGIAEALLATAIGLVAAIPAVVIYNVFARQIGGFKAMLGDVAAQVLLLQSRDLDLEASAAAHPVRVAQKLRAG
notes: ExbB, Escherichia coli, full length; inner membrane protein of the Ton system; residues about 10-234 resolved in the crystal; Forms hexamers and pentamers depending on pH, so copies is left open; also called ExbB hexamer; ExbB pentamer; source: E. coli BL21 (DE3) Gold, pET-21b, co-expressed with ExbD, purified from the membrane fraction in detergent (IMAC, SEC); not shown: His6, C-terminal, kept
B2: ExbD (natural protein, Escherichia coli, UniProt P0ABV2 1-141, looked up)
chain: MAMHLNENLDDNGEMHDINVTPFIDVMLVLLIIFMVAAPLATVDVKVNLPASTSTPQPRPEKPVYLSVKADNSMFIGNDPVTDETMITALNALTEGKKDTTIFFRADKTVDYETLMKVMDTLHQAGYLKIGLVGEETAKAK
notes: ExbD, Escherichia coli, full length, no tag; only the TM helix is modelled in the cryo-EM maps; The PDB entries hold only the TM helix (ExbDTM) of ExbD; also called ExbDTM (its TM helix as modelled); ExbD trimer; source: E. coli BL21 (DE3) Gold, pET-21b, co-expressed with ExbB-His6, co-purified in detergent (IMAC, SEC)

Key:
[1] = target: the molecule itself; test: negative-stain EM of 2D crystals; purified ExbBD complex (C8E4) reconstituted with E. coli total lipid extract by dialysis, 25 mM Na-citrate pH 5.4, 150 mM NaCl, 4°C; Fourier filtering of crystal patches
[2] = target: the molecule itself; test: cryo-EM structure; single particle, frozen-hydrated ExbBD complex in LMNG, 10 mM Na-citrate pH 5.4; reference-free 2D classification and 3D reconstruction of the pentameric complex at 7.1 Å, 5-fold symmetry enforced
[3] = target: the molecule itself; test: cryo-EM structure; single particle, frozen-hydrated ExbBD complex in LMNG, 10 mM Tris-HCl pH 8.0; reference-free 2D classification and 3D reconstruction of the hexameric complex at 6.7 Å, no symmetry applied
[4] = target: the molecule itself; test: crystal structure; ExbBD complex purified in C8E4 or C10E5; crystals grown at pH 9.0 (0.1 M glycine, 0.15 M CaCl2, ~40% PEG 350 MME), 20°C; space group P2_(1), 2.8 Å, molecular replacement
ExbB [5] = target: B1; test: cryo-EM structure; single particle, frozen-hydrated ExbBD complex in LMNG, 10 mM Na-citrate pH 5.4; reference-free 2D classification and 3D reconstruction of the pentameric complex at 7.1 Å, 5-fold symmetry enforced; conditions: both partners purified
ExbB [6] = target: B1; test: cryo-EM structure; single particle, frozen-hydrated ExbBD complex in LMNG, 10 mM Tris-HCl pH 8.0; reference-free 2D classification and 3D reconstruction of the hexameric complex at 6.7 Å, no symmetry applied; conditions: both partners purified

Row | Binder | stoichiometry N [1] [subunits] | ratio of pentamer to hexamer [2] [pentamer per hexamer] | ratio of hexamer to pentamer (printed as pentamer:hexamer) [3] [hexamer per pentamer] | stoichiometry N [4] [subunits] | stoichiometry N (ExbB [5]) [ExbD per ExbB pentamer] | stoichiometry N [3] [subunits] | stoichiometry N (ExbB [6]) [ExbD per ExbB hexamer]
1 | B1 | 5 | 3 | 3 | 6 |  |  | 
2 | B2 |  |  |  |  | 1 | 3 | 3
